Measurements from paper PMC2175199 (The Journal of Cell Biology, 2000).

Tests used:
XSA2 = molecular target: T1, XSA2 (Xenopus laevis (endogenous in egg …, UniProt Q9DGN0 1-1194)); assay: co-IP
T1 sequence: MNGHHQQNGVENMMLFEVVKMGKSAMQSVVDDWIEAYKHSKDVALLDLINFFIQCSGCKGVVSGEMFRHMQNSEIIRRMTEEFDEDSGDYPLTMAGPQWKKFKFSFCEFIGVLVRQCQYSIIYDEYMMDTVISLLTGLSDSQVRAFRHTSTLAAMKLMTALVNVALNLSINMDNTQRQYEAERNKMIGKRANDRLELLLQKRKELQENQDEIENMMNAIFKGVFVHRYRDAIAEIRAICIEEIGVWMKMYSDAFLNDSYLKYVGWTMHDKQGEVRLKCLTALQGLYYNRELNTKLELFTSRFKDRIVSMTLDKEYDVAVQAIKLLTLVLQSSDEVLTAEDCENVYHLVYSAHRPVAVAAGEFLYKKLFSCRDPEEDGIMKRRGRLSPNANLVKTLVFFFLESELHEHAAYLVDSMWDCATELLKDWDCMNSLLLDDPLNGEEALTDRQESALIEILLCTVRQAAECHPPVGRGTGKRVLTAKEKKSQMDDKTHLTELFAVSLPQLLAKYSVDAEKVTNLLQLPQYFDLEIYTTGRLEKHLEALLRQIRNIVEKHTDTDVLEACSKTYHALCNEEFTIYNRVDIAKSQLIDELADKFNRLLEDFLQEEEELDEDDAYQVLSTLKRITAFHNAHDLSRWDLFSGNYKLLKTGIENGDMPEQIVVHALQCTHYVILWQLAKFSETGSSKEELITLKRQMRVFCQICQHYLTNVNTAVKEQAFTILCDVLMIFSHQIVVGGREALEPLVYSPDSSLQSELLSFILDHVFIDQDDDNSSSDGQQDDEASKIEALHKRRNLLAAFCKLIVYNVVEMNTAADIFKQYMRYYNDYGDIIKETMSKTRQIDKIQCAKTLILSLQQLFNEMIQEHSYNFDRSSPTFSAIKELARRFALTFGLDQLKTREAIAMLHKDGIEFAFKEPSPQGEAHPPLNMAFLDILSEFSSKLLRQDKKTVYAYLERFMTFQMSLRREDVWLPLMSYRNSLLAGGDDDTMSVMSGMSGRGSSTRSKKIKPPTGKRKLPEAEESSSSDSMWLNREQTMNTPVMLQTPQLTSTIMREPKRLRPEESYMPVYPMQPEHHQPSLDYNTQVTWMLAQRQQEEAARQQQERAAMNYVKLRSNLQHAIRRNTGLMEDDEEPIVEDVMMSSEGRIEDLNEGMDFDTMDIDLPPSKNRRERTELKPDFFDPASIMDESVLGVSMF

XSA1 = molecular target: T2, XSA1 (Xenopus laevis (endogenous in egg …, UniProt Q9DGN1 1-1265)); assay: co-IP
T2 sequence: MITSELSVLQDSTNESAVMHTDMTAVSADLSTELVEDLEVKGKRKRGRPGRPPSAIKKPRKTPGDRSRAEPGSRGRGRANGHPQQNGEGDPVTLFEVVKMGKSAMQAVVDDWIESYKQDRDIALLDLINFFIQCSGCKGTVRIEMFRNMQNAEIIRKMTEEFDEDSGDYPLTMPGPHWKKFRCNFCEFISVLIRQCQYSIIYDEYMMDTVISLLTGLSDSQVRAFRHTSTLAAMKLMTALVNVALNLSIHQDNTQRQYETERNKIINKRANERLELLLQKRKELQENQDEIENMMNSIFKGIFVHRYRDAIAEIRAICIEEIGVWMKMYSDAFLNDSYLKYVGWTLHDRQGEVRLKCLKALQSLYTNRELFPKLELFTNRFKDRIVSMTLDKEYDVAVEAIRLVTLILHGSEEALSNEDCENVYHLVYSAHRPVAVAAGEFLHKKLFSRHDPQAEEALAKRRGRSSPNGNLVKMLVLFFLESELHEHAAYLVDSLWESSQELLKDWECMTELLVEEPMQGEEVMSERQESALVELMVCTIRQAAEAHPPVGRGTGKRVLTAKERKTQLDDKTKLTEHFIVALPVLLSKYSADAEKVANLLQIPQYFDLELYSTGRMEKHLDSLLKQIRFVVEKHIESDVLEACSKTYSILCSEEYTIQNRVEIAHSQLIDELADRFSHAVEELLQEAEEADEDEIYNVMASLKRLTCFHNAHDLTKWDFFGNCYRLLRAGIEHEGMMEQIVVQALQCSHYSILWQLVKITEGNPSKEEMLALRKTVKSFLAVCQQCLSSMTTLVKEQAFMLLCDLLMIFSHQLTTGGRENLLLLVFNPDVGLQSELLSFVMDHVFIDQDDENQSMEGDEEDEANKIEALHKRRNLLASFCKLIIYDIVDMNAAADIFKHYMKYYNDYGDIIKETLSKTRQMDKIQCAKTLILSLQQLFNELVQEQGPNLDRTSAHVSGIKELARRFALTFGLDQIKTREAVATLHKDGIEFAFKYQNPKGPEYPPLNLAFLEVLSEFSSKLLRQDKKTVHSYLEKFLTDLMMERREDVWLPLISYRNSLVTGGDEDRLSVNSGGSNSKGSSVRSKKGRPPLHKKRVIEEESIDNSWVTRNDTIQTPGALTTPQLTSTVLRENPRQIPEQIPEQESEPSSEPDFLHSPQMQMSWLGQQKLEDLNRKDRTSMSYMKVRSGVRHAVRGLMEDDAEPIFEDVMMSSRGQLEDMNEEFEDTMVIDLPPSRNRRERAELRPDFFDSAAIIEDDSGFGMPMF

B1: XRAD21 (natural protein)
chain: MFYAHFVLSKRGPLAKIWLAAHWDKKLTKAHVFECNLESSVESIICPKVKMALRTSGHLLLGVVRIYHRKAKYLLADCNEAFIKIKMAFRPGVVDLPEENREAAYNAITLPEEFHDFDQPLPDLDDIDVAQQFSLNQSRVEEITMREEVSNINILQDNDFGDFGMDDREMMREGSAFEDDMLTTNASNLKLEPEQSTSQLNEKSNHLEYDDQYKDDNFGEGNEGGILDDKLLSNDAGGIFDDPPAMPEEGVAMPEQPVHDDLDDDDNVSMGAPDSPDSVDPVEPLPTMTDQTTLVPNEEEAFALEPIDITVKETKAKRKRKLIVDSVKELDSKTIRAQLSDYSDIVTTLDLAPPTKKLMMWKETGGVEKLFSLPAQPLWNTRLLKLFTRCLTPLVLDDLRKRRKGGEADNLDEFLKEFENPEVPREELRPQDVIDQPILEEASHLQESLMEGSRTHLDDTIMPPPPPKQGVKRDSLQMEPEPMPMMQEAEPQIEMPPPPLPPPLELPPEEPQSISDLIPELNLLPEKEKEKDEEEEEEEEDTTGTEQDQEERRWNKRTQQMLHGLQRVLAKTGAESISLLDLCRNTNRKQAAAKFYSFLVLKKQQAIELTQREPYSDIVATPGPRFHTV
percent depleted from the extract by anti-XSA2 (XSA2): ~10% | percent depleted from the extract by anti-XSA1 (XSA1): ~90%
